Results: publication PMC3488213 (Nucleic Acids Research, 2012)

Molecular target: the molecule itself
Assay: AUC

B1: Y29W mutant of C.Esp1396I (natural protein)
chain: MESFLLSKVSFVIKKIRLEKGMTQEDLAWKSNLDRTYISGIERNSRNLTIKSLELIMKGLEVSDVVFFEMLIKEILKHD
stoichiometry N: 2
